Laboratory results: the supplement of paper PMC10266784

B1: library; numbered along this chain (parent)
chain: MAAAAAAAAEQQSSNGPVKKSMREKAVERRSVNKEHNSNFKAGYIPIDEDRLHKTGLRGRKGNLAICVIILLFILAVINLIITLVIWAVIRIGPNGCDSMEFHESGLLRFKQVSDMGVIHPLYKSTVGGRRNENLVITGNNQPIVFQQGTTKLSVENNKTSITSDIGMQFFDPRTQNILFSTDYETHEFHLPSGVKSLNVQKASTERITSNATSDLNIKVDGRAIVRGNEGVFIMGKTIEFHMGGNMELKAENSIILNGSVMVSTTRLPSSSSGDQLGSGDWVRYKLCMCADGTLFKVQVTSQNMGCQISDNPCGNTH

Variants of: B1
Assay: SGCB cell-surface expression functional score (HA stain, bin4 vs bin1, normalised to synonymous) (log10 ratio); higher = more cell-surface SGCB (functional)
In short: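 Sorting and sequencing yield the functional score, defined as the log ratio of a variant's highest-bin frequency to its lowest-bin frequency, with the median taken over codons and replicate transductions. The libraries, codon-saturation sets of HA-tagged, YFP-fused human beta-sarcoglycan, went into HEK293 cells stably carrying alpha-, gamma- and delta-sarcoglycan by duplicate lentiviral transduction at MOI <0.1. Cells were stained on ice with Alexa Fluor 647 anti-HA, fixed and split into four 5% intensity bins, and synonymous variants were scaled per section to mean 0, SD 0.5.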

SGCB cell-surface expression functional score (log10) of substitutions, site by site:
S264: M 0.69; K 0.5; D 0.96; V 0.6; F 0.58; H 0.22; Q 0.39; I 0.34; C -0.1; N -0.3; Y 0.34; G 0.23; P 0.06; E 0.53; T 0.31; R 0.03; W -0.2; L 0.68
P269: R 0.75; W 0.56; D -0.09; N 0.54; Y 0.73; F 0.8; E 0; H 0.32; S 0.18; Q 0.32; L 0.23; T 0.41; G 0.44; C 0.49; I 0.5; M -0.48; V 0; A -0.23; K 0.01
S279: L 0.22; E 0.22; W -0.2; M 0.56; G -0.07; C 0.08; I -0.06; Q -0.19; V 0.21; D 0.24; R 0.16; K -0.05; A 0.39; Y 0.05; P 0.24; H -0.04; F -0.13; N 0.15; T 0.09
G274: H -1.17; A -0.37; R -0.37; I 0.31; C -0.61; P -0.32; K -0.77; T 0.16; Q -0.28; Y 0.47; S 0.17; F -0.16; N -0.16; M -0.11; D -0.37; E -0.62; L 0.03; V -0.14; W -0.13
G278: W 0.16; K 0.27; E 0.27; I 0.08; C 0.13; Y 0.08; S 0.15; D 0.31; H -0.29; F 0.12; Q 0.09; P 0.23; M 0.18; V 0.32; R 0.05; L -0.05; N 0.05; A 0.15; T 0.14
L277: T 0.24; D -0.09; V -0.49; G -0.19; E 0.02; C -1.31; K -1.8; F -0.4; I 0.41; N 0.08; R -0.27; P -1.21; A -0.39; H 0.19; Q -0.65; Y -0.12; S -0.88; M -0.2; W 0.44
D281: G -0.06; H -1.11; K 0.25; A -0.2; M 0.67; Q 0.18; F 0.45; I -0.27; L 0.08; E 0.11; P -0.06; N 0.25; C -1.63
S273: H -0.82; C -0.58; V -0.79; Y 0.11; D -0.07; F -1.31; L -0.2; T -0.52; R -0.14; I 0.05; G -0.18; K -0.55; E 0.08; M -1.46; A -0.68; N 0.34; P -0.33; Q -0.2; W 0.09
T266: M 1.39; Q 1.04; D 0.4; R 0.23; V 0.35; E 1.22; A 0.63; K 1.15; C 1.12; Y 0.19; G 1.23; I 0.26; N 0.54; L 0.47; S 0.4; H 0.55; F 0.7; P 0.54; W 0.59
T265: P 0.25; K 0.32; V 0.52; C -0.3; Y 0.55; F 0.68; A 0; R 0.4; G 0.47; H 0.75; M 1.41; I 0.58; W 0.38; L 0.73; Q 0.21; N 0.79; D 0; S 0.4; E 0.2
Q276: H -0.07; S -0.37; G 0.24; R -0.17; T -1.1; F -0.23; A -0.49; M 0.2; L -0.3; K 0.11; W -1.29; Y 0.02; E 0.14; N -0.22; C -1; V -0.56; P -0.4; D 0.34; I 0.1
G280: P 0.06; F 0.08; N 0.37; R -0.45; I 0.26; E 0.02; S 0.11; Q -0.26; H 0.05; W -0.37; L -0.28; T -0.11; C -0.75; D -0.56; Y -0.23; M 0.03; V 0.01; K 0.07; A -0.01
D275: R -0.53; M 0.18; T -0.08; Y 0.17; E -0.21; V 0.12; G 0.01; L -0.13; H -0.97; C -0.13; A -0.05; W -0.16; K -0.82; I -0.42; P -1.24; N -0.12; Q -1.58; S -0.06; F -0.57
S270: V 0.24; Y 0.41; Q 0.47; E -0.45; G 0.32; M 0.77; L 0.64; K -0.13; I 0.33; C -0.02; H 0.54; P 0; A 0.44; D 0.32; T 0.45; F 1.1; R 0.24; N -0.08
L268: I 0.38; P -0.02; E -0.13; H 0; R 0.02; K -1.12; D 0.78; V 0.2; N 0; Y -0.02; T -0.02; F 0.46; C -0.57; G -0.22; Q -0.01; M 0.61; W 0.53; S 0.48; A 0.63
S272: A 0.37; M -1.59; G 0.1; Q 0.34; L 0.07; C -0.03; V -0.14; D -0.3; I 0.34; T -0.52; E 0.23; K 0.11; F 0.1; Y -0.29; P 0.21; R 0.18; H -0.05; N 0.08; W -0.13
S271: E -0.22; N 0.21; G 0.33; P -0.56; Q -0.08; A 0; C -0.06; K 0.11; V 0.17; R -0.24; F 0.35; M -0.03; H -0.19; I -0.19; Y -0.26; W -0.22; D -0.12; T 0.3; L 0.07
R267: N 0; F 0.59; H 0.05; E -0.053; T -0.49; K 0.76; L -0.05; G 0.49; V 0.49; P -0.19; C 0.16; A 0.63; I -0.11; Q -0.244; W -0.83; M -0.73; Y 0.2; S 0.28; D -0.54
